We go through 73 sequences from the supplement of paper PMC10567573.

± gives the standard deviation.

This data set is described as follows: protein stability index of a GFP-peptide fusion (GPS, HEK-293T) (PSI 1-6); higher = more stable. The following applies: c terminus: a fixed tail appended.
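Also: 24-mer peptide tiles fused after GFP, lentivirally expressed, FACS-sorted into six equal bins by GFP/DsRed ratio, decoded by Illumina sequencing, PSI is the read-weighted mean bin number.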

Turning to PPPPPKEGHQEGLVELPASFRELL [SCNN1D], the protein stability index came to 4.29 ± 0.12 (treatment: DMSO) and 4.29 ± 0.1 (treatment: MLN4924 1 uM, 8 h). For the sequence FFFSSPGNNNGTSIEDGQIPEIIF [BTBD1], the protein stability index (treatment: DMSO) worked out at 2.39 ± 0.22 and the protein stability index (treatment: MLN4924 1 uM, 8 h) came out at 2.44 ± 0.33. Consider MSFVAGVIRRLDETVVNRIAAGEV [MLH1], for which the protein stability index (treatment: DMSO) was found to be 2.85 ± 0.35. With GGLVVSAASLAGCLGALCENTCLL [TSPAN10], the protein stability index is, setting by setting: (treatment: DMSO) 2.79 ± 0.57; (treatment: MLN4924 1 uM, 8 h) 2.67 ± 0.54. For RLPNRQLISCSEDGSVRIWELREK [WDR41], in that order: 3.23 ± 0.2 and 3.31 ± 0.42. Regarding HEWKSLAPMDAPRYQHGIAVIGNF [KLHL13], the protein stability index (treatment: DMSO) amounted to 2.22 ± 0.2 and the protein stability index (treatment: MLN4924 1 uM, 8 h) amounted to 2.17 ± 0.26. For KCDSLKEECIPEHMVRESKIMEAE [FAN1], in that order: 5.2 ± 0.39 and 5 ± 0.22. Take MPCLLMELRRDSSESQLASTESDK [C18orf25]: the protein stability index stood at 4.73 ± 0.05 (treatment: DMSO) and 4.55 ± 0.22 (treatment: MLN4924 1 uM, 8 h). For QSLPKASPVTTSPTAATTQNPVLS [LCOR], in that order: 4.92 ± 0.19 and 4.85 ± 0.21. Regarding LQKLLSGRSREELDELTGEVAGGG [FEM1A], the protein stability index was found to be 4.64 ± 0.19 (treatment: DMSO) and 4.71 ± 0.2 (treatment: MLN4924 1 uM, 8 h). For MSIHIVALGNEGDTFHQDNQPSGL [RHOBTB3], in that order: 2.51 ± 0.25 and 2.52 ± 0.4. For KTTLGWKYEQAFESSQKYKEGKYI [YPEL3], in that order: 2.37 ± 0.3 and 2.63 ± 0.17. For ETVQTWIELLTGETWNPFKLQYQL [GOLPH3L], in that order: 2.65 ± 0.6 and 2.74 ± 0.71.

For the sequence SRTCIGSSHSRGPLSWAPCGPIAG, the protein stability index was found to be 2.76 ± 0.18 (treatment: DMSO) and 2.84 ± 0.36 (treatment: MLN4924 1 uM, 8 h).

Take APGEEEEEEEEATNTHPPASLPSQ [CHGA]: the protein stability index reads like this: (treatment: DMSO) 5.57 ± 0.34; (treatment: MLN4924 1 uM, 8 h) 5.71 ± 0.19.

As to DDFDEDELMAELEELEQEELNKKM [CHMP4C], the protein stability index is 5.16 ± 0.85 (treatment: DMSO) and 5.6 ± 0.3 (treatment: MLN4924 1 uM, 8 h).

Take VPQRTAGGDVPERELYIRWLEVAA [MYORG]: the protein stability index turned out to be 2.62 ± 0.19 (treatment: DMSO) and 2.77 ± 0.3 (treatment: MLN4924 1 uM, 8 h).

Turning to LQMEMKEDDVSFLMKHKSRKRRLF [TRIM35], the protein stability index runs as follows: (treatment: DMSO) 3.35 ± 0.35; (treatment: MLN4924 1 uM, 8 h) 3.54 ± 0.16.

For SPISSISPGLHSFTDHQRLMKRRK [KCNK9], the protein stability index came out at 4.7 ± 0.28 (treatment: DMSO) and 4.8 ± 0.16 (treatment: MLN4924 1 uM, 8 h).

Turning to DQDLDALMADLVADISEAEQRTIQ [APBB1IP], the protein stability index reads like this: (treatment: DMSO) 4.48 ± 0.36; (treatment: MLN4924 1 uM, 8 h) 4.56 ± 0.21. For HDDGYMICCDKCSVWQHIDCMGID [KMT2E], in that order: 2.67 ± 0.29 and 2.92 ± 0.42. For PAVPEEILKRLLKEQHLWDVDLLD [DLC1], in that order: 2.97 ± 0.55 and 3.12 ± 0.34. For RWALLSCRGKKPSRIYGQAMAIIN [KLHDC10], in that order: 2.32 ± 0.55 and 2.18 ± 0.32. In the case of VKQYLSTTLGPKLASQALTPPPGP [TFE3], the protein stability index was found to be 2.92 ± 0.19 (treatment: DMSO) and 2.93 ± 0.3 (treatment: MLN4924 1 uM, 8 h). Consider YDWLFFSPDKDSIMNIEPAILVMH [INTS3], for which the protein stability index came out at 2.61 ± 0.52 (treatment: DMSO) and 2.16 ± 0.21 (treatment: MLN4924 1 uM, 8 h).

As for WRDSKGKDKEYAEIIRKQVSATKA [UBE2R2], the protein stability index reads like this: (treatment: DMSO) 3.9 ± 0.34; (treatment: MLN4924 1 uM, 8 h) 4.07 ± 0.46. For SRSTSFRGGMGSGGLATGIAGGLA [KRT18], in that order: 3.3 ± 0.066 and 3.33 ± 0.37. For NAGKVNLPKELPADAVNLTIPASL [PLAGL1], the protein stability index came out at 4.4 ± 0.25 (treatment: DMSO) and 4.43 ± 0.22 (treatment: MLN4924 1 uM, 8 h). For FLMGRVLYFHHYFPAMLFSSMLTG [POMT2], in that order: 3.35 ± 0.21 and 3.37 ± 0.43. LDDIIRHDFFLQGFTPDRLSSSCC [PLK2] returned a protein stability index (treatment: DMSO) of 2.48 ± 0.043 and a protein stability index (treatment: MLN4924 1 uM, 8 h) of 2.64 ± 0.3. For EKDWGLEGYVWRGSQLEDQALRGL [ZSWIM9], in that order: 2.97 ± 0.48 and 3.62 ± 0.58. For PSHSDNLLHGLNLLWRKQLFCDVT [KLHL14], in that order: 1.96 ± 0.33 and 2.16 ± 0.3.

Consider HGASAPSVSREARQTVPPLTVRLH [PWWP2B], for which the protein stability index was 3.76 ± 0.48 (treatment: DMSO) and 3.73 ± 0.12 (treatment: MLN4924 1 uM, 8 h). For FRPVSETCTDRSGISTGHWSGEVK [FUT8], in that order: 3.79 ± 0.28 and 3.84 ± 0.26.

On to LSTPKPLVDFCNKPILLHQVEALA [GMPPB], for which the protein stability index came out at 2.54 ± 0.3 (treatment: DMSO) and 2.52 ± 0.41 (treatment: MLN4924 1 uM, 8 h).

ITLKYPHYFPVMKKCCIPETRRRM [NLN]: the protein stability index is, setting by setting: (treatment: DMSO) 2.1 ± 0.27; (treatment: MLN4924 1 uM, 8 h) 1.97 ± 0.37. For SPAAPYFLGSSFSPVRCGGPGDAS [WEE1], in that order: 3.06 ± 0.3 and 3.17 ± 0.35.

Regarding EQKTGTEAEAADSGAVGARRFLLC [MFSD9], the protein stability index (treatment: DMSO) was found to be 4.48 ± 0.15 and the protein stability index (treatment: MLN4924 1 uM, 8 h) came out at 4.42 ± 0.1. Take ADTKKRHTPRGHAESTSNRQPRKQ [SMOC2]: the protein stability index is, setting by setting: (treatment: DMSO) 5.34 ± 0.2; (treatment: MLN4924 1 uM, 8 h) 5.29 ± 0.15. As to YQAGKPDALTKLEQGEPLWTLEDE [ZNF649], the protein stability index came to 4.57 ± 0.17 (treatment: DMSO) and 4.6 ± 0.18 (treatment: MLN4924 1 uM, 8 h). For ARKYFERLPGGGWTLRRTKELRKD [DYRK1B], in that order: 3.66 ± 0.45 and 3.86 ± 0.44. For DPAYIAVLVLIFNAAKTCPTMPAL [INTS4], in that order: 3.12 ± 0.56 and 3.09 ± 0.47. For the sequence PVTSIGIDNLGLKLEENLQETHSA [SLC35F2], the protein stability index runs as follows: (treatment: DMSO) 5.06 ± 0.19; (treatment: MLN4924 1 uM, 8 h) 5 ± 0.11. For LQAPVPPDSVPSLQNMGLLLDKLA [PBXIP1], in that order: 3.11 ± 0.44 and 2.86 ± 0.46.

In the case of PGLSQGPGKETLESALIALDSEKP [EHMT1], the protein stability index by setting is: (treatment: DMSO) 5.33 ± 0.28; (treatment: MLN4924 1 uM, 8 h) 5.31 ± 0.18. Consider AVCMFLASKLKETSPLTAEKLCIY [CCND2], for which the protein stability index (treatment: DMSO) is 2.84 ± 0.61 and the protein stability index (treatment: MLN4924 1 uM, 8 h) turned out to be 2.44 ± 0.56.

In the case of QPYTCSICRRNFSRRSSLLRHQKL [ZNF75A], the protein stability index is, setting by setting: (treatment: DMSO) 3.43 ± 0.37; (treatment: MLN4924 1 uM, 8 h) 3.71 ± 0.35. For TPDQKYSMDNTPHTPTPFKNALEK [MYBL2], in that order: 5 ± 0.2 and 5.22 ± 0.2. Regarding EEENIGCEEKAKKNANRPLLDEIV [ACBD3], the protein stability index (treatment: DMSO) turned out to be 5.25 ± 0.24 and the protein stability index (treatment: MLN4924 1 uM, 8 h) is 5.46 ± 0.24.

On to KTHTGEKPHRCHNCGKSFSRLTAL [ZNF449], for which the protein stability index (treatment: DMSO) came out at 2.47 ± 0.12 and the protein stability index (treatment: MLN4924 1 uM, 8 h) came to 2.67 ± 0.45. For SQNIAAETRAEDPPWFEGLESRFQ [DFFB], in that order: 4.46 ± 0.13 and 4.49 ± 0.079. For INRADYCPECYPDNPANRSLVLPW [TOR1AIP2], in that order: 2.29 ± 0.33 and 2.76 ± 0.55.

Consider SFGACLREETPRMPSWASARDRQP [ELOA2], for which the protein stability index (treatment: DMSO) was determined as 3.4 ± 0.34 and the protein stability index (treatment: MLN4924 1 uM, 8 h) worked out at 3.13 ± 0.32.

In the case of YHMFQREKVEVQLPELFHKIGVGA [KCNAB2], the protein stability index reads like this: (treatment: DMSO) 2.52 ± 0.59; (treatment: MLN4924 1 uM, 8 h) 2.39 ± 0.45. For TGCVLGSSGKVLPKWGWEQLEVTC [POMT2], in that order: 2.07 ± 0.36 and 2.25 ± 0.27. Regarding CGSQLSSTKGSRSNLSTRDASILT [NETO1], the protein stability index reads like this: (treatment: DMSO) 2.62 ± 0.2; (treatment: MLN4924 1 uM, 8 h) 2.65 ± 0.21. For YLPQCSYFKCVQKDIQPYMRRMVA [CCND2], in that order: 2.11 ± 0.28 and 2.01 ± 0.33. For FKRSTGTWHHTKPLLPSDLRRTGC [GAN], in that order: 2.78 ± 0.22 and 2.82 ± 0.39. For DQERIKVERKRLRNRLAATKCRKR [JUNB], in that order: 4.83 ± 0.19 and 4.53 ± 0.17. For EKEESRREAEKQNYLAEHCPPLHI [TNNI2], the protein stability index came out at 4.93 ± 0.17 (treatment: DMSO) and 4.94 ± 0.22 (treatment: MLN4924 1 uM, 8 h). For NHLLESMPLREGSSFQDLLGDALA [HES6], in that order: 3.34 ± 0.31 and 3.4 ± 0.31. For TGFRTISSLEEIVEKQGDTIEYLK [TMEM192], the protein stability index is, setting by setting: (treatment: DMSO) 3.98 ± 0.41; (treatment: MLN4924 1 uM, 8 h) 4 ± 0.2. For SMTTPRCYVGATVLRGRLYAIAGY [KLHL12], in that order: 2.14 ± 0.36 and 2.51 ± 0.58. For EEVDVTSVDPIAAFCSSDEELEDS [RBBP5], in that order: 5.55 ± 0.2 and 5.62 ± 0.16. For QKLNPGFDLAKGNAGKVNLPKELP [PLAGL1], the protein stability index is, setting by setting: (treatment: DMSO) 4.27 ± 0.14; (treatment: MLN4924 1 uM, 8 h) 4.15 ± 0.3. For PVVSMDLDPQPITDEEEGLIWVVG [PTPRD], in that order: 3.96 ± 0.29 and 4.29 ± 0.48.

On to VQILCHTYWEHWTSQGQVRMRLFG [RTP4], for which the protein stability index runs as follows: (treatment: DMSO) 2.45 ± 0.87; (treatment: MLN4924 1 uM, 8 h) 2.52 ± 1.1. Regarding ASSASAFLTAPLLEFLLALYFLFA [CMTM3], the protein stability index was determined as 2.34 ± 0.79 (treatment: DMSO) and 2.63 ± 0.88 (treatment: MLN4924 1 uM, 8 h). For QSERQRHESQQLATETQALAQRTQ [TEKT4], in that order: 5.43 ± 0.21 and 5.32 ± 0.16. For PCATVSVFPGARLLTIGDANGEIQ [CARM1], in that order: 3.31 ± 0.38 and 3.28 ± 0.16. For EYLENQVIKDKDDSVDAQNICHVW [RNF180], in that order: 3.42 ± 0.26 and 3.57 ± 0.27. Consider AEAEPEDQDEGEWGLDQEQVFSLG [ZBED1], for which the protein stability index reads like this: (treatment: DMSO) 5.34 ± 0.44; (treatment: MLN4924 1 uM, 8 h) 5.52 ± 0.44. For STPVCSQKVVVTTPLHRDKTPLHQ [MYBL2], in that order: 3.92 ± 0.22 and 4.26 ± 0.24.
